Numbering of substitutions follows the chain as printed. In names and notes the source's numbering stands.

Sequences and labels used below:
T1: inhibin A (InhA), mature heterodimer, unlabelled (UniProt P05111 233-366; P08476 311-426)
T1 chain 1: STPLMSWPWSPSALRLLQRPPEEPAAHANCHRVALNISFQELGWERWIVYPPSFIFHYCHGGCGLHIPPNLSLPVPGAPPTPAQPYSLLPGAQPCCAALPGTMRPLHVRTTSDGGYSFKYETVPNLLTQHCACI
T1 chain 2: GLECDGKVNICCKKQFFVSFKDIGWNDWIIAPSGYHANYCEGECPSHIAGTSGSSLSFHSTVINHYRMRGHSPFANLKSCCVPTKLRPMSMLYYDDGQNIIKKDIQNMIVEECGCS

T2: biotinylated TGF-β2 homodimer (human, biotin (EZ-Link Amine-PEG3-Biotin coupled with EDC and sulfo-NHS))
T2 chain: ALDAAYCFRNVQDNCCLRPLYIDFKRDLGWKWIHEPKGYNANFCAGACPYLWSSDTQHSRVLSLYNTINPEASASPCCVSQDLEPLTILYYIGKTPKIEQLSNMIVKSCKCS

B1: TGF-β2 on the chip with ratBGO-Y248A bound (1 µM ratBGO-Y248A in the buffer) (complex)
chain 1: T2 chain
chain 2: GSPCELSPINASHPVQALMESFTVLSGCASRGTTGLPREVHVLNLRSTDQGPGQRQREVTLHLNPIASVHTHHKPIVFLLNSPQPLVWHLKTERLAAGVPRLFLVSEGSVVQFPSGNFSLTAETEERNFPQENEHLLRWAQKEYGAVTSFTELKIARNIYIKVGEDQVFPPTCNIGKNFLSLNYLAEYLQPKAAEGCVLPSQPHEKEVHIIELITPSSNPASAFQVDIIVDIRPAQEDPEVVKNLVLILKCKKSVNWVIKSFDVKGNLKVIAPNSIGFGKESERSMTMTKLVRDDIPSTQENLMKWALDNGYRPVTSYTMAPVANRFHLRLENHHHHHH
B2: TGF-β2 homodimer (growth factor domain), unlabelled (ligand)
chain: T2 chain
B3: TGF-β2 on the chip with ratBGO bound (1 µM ratBGO in the buffer) (complex)
chain 1: T2 chain
chain 2: B1 chain 2 with A221Y
B4: TGF-β2 on the chip with zfBGO bound (1 µM zfBGO in the buffer) (complex)
chain 1: T2 chain
chain 2: GSPCELLPVGVGHPVQAMLKSFTALSGCASRGTTSHPQEVHIINLRKGSAQGAREKTAEVALHLRPIQSLHVHQKPLVFILNSPQPILWKVRTEKLAPGVKRIFHVVEGSEVHFEVGNFSKSGEVKVETLPHGNEHLLNWAHHRYTAVTSFSELRMAHDIYIKVGEDPVFSETCKIDNKFLSLNYLASYIEPQPSTGCVLSGPDHEQEVHIIELQAPNSSSAFQVDVIVDLRPLDGDIPLHRDVVLLLKGEKSVNWVIKAHKVMGKLEIMTSDTVSLSEDTERLMQVSKTVKQKLPAGSQALIQWAEENGFNPVTSYTNTPVANHFNLRLREHHHHHH
B5: TGF-β2 on the chip with ratBGO-zfBL bound (1 µM ratBGO-zfBL in the buffer) (complex)
chain 1: T2 chain
chain 2: GSPCELSPINASHPVQALMESFTVLSGCASRGTTGLPREVHVLNLRSTDQGPGQRQREVTLHLNPIASVHTHHKPIVFLLNSPQPLVWHLKTERLAAGVPRLFLVSEGSVVQFPSGNFSLTAETEERNFPQENEHLLRWAQKEYGAVTSFTELKIARNIYIKVGEDQVFPPTCNIGKNFLSLNYLAEYLQPKAAEGCVLPSQPHEKEVHIIELITPNSSSAFQVDIIVDIRPAQEDPEVVKNLVLILKCKKSVNWVIKSFDVKGNLKVIAPNSIGFGKESERSMTMTKLVRDDIPSTQENLMKWALDNGYRPVTSYTMAPVANRFHLRLENHHHHHH
B6: rat betaglycan ZP-C domain (BG_(ZP-C)), mammalian-expressed (domain or fragment)
chain: GNATFNMELYNTDLFLVPSPGVFSVAENEHVYVEVSVTKADQDLGFAIQTCFLSPYSNPDRMSDYTIIENICPKDDSVKFYSSKRVHFPIPHAEVDKKRFSFLFKSVFNTSLLFLHCELTLCSRKKGSLKLPRCVTPDDACTSLDATMIWTMMQNKKTFTKPLAVVLQ
B7: BGZP-C S155A (protein)
chain: B6 chain with S143A
B8: BGZP-C E130A (protein)
chain: B6 chain with E118A

For assay [1], the target named is T3, TGF-β receptor type II (TGFBR2), extracellular domain (UniProt P37173 23-166). Put plainly: SPR; 1 µM ratBGO-Y248A.
Assay [2] deals with T3, TGF-β receptor type II (TGFBR2), …. Put plainly: SPR.
Assay [3] has the same target. Put plainly: SPR; 1 µM ratBGO. A general note: In SPR one partner is held on a chip, and binding of the other changes the refractive index at the surface.
Assay [4] shares this target. Put plainly: SPR; 1 µM zfBGO.
For assay [5] the target is unchanged. Put plainly: SPR; 1 µM ratBGO-zfBL.
Assay [6] concerns the target B2. Put plainly: SPR.
Assay [7] has as its target T1, inhibin A (InhA), mature heterodimer, …. Put plainly: SPR.
For assay [8], the target named is T2, biotinylated TGF-β2 homodimer. Put plainly: SPR.

Regarding B1, the Kd (usually the constant that tells how readily two partners part at equilibrium) in assay [1] was greater than 10000 nM.

Take B2: the Kd in assay [2] was greater than 10000 nM.

Turning to B3, the Kd in assay [3] was 1780 nM.

As for B4, the Kd in assay [4] is greater than 10000 nM.

Consider B5, for which the Kd in assay [5] is greater than 10000 nM.

Take B6: the Kd in assay [6] was determined as 127 nM; in assay [7] it was 1070 nM; in assay [8], 159 nM.

Take B7: the Kd in assay [8] was 282 nM.

B8: binding in assay [8] was characterised by a dissociation constant (Kd) of 1350 nM. This Kd is about 4.8-fold higher than that of the molecule before.
